System: T1, PrpR (His6-PrpR) (Pseudomonas aeruginosa PAO1?), ORF:9118ca87
T1 sequence: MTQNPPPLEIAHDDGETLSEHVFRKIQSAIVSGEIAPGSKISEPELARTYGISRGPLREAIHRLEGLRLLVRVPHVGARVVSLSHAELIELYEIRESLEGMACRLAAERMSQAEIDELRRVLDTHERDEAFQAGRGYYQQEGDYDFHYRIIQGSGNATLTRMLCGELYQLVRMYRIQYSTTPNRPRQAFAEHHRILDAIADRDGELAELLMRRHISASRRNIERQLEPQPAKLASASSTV
Assay: EMSA
Details: 30 mM Tris-HCl pH 8.0, 120 mM KCl, 1 mM MnCl2, 1 mM MgCl2, 20% glycerol, 240 ug/mL BSA, 15.2 ug/mL poly(dI-dC), 21 C, 60 min; 6% PAGE in TBE

**Q.** “CTGCTTCATCACGTCGCCCATGCCGCAGGCGAAGTCGATCAGGCGCGGCAACACGTAACGGTCATAGATGCCCACGAAACTCTCTCCTGGCACAGCGGCTGGAGGGGAAAGCATAGACCAGCGATGCATTAGACGATTGTCGACAATCAAGCGACGAATGATTGACCCCACGCAATCCAGGCGGTAGCTTTCGCAAACATTGTCGACACATCGACCCGGACAGCCAGTACCATGACCCAGAACCCGCCCCCTCTCGAGATTGCCCATGAC (double strand) [prpR promoter (prpRp)]” was tested. Which binding did it give?
**A.** binds
